Source: patent US20070249530A1 (Genentech, published 2007)

Columns and labels:
[1] = biological target: T1, Human BAFF (residues 82-285) (human, UniProt Q9Y275 82-285); assay: SPR (BIAcore 3000), BAFF immobilized
T1 construct: also called BAFF82-285

[2] = biological target: T1, Human BAFF (residues 82-285); assay: competitive displacement ELISA; immobilized BAFF, tracer biotinylated mini-BR3; bivalent Fc construct (avidity); competition ELISA
[3] = biological target: T1, Human BAFF (residues 82-285); assay: SPR (BIAcore 3000), BAFF immobilized, 1:1 model
Protocol: CM5 chips from BIAcore were docked according to manufacturer instructions. Then, BIAcore system was primed with 0.2 μm filtered buffer containing 10 mM Hepes pH 7.2, 150mM NaCl, 0.005% Tween20. After buffer priming, the flow cells were normalized with 70% glycerol. Each flow cell surface was activated individually in preparation for linkage of the ligand to the chip with a 1:1 mixture of EDC(N-ethyl-N′-(3-dimethyl aminopropyl)-carbodiimide hydrochloride) and NHS (N-hydroxysuccinimide). […] Generally, the ligand to be immobilized (30 μg/ml in 10 mM NaOAc, pH 5 buffer) was injected into the system at 40 μl/min. Once approximately 400 RU was generated, the flow cell was blocked with ethanolamine. […] The system was then primed again.
The ligand-receptor complex was allowed to dissociate by washing the flow cell at 30 μl/min for 600 seconds. Alternatively, if several binding measurements over the same flow cell were to be performed, the ligand-receptor complex was allowed to dissociate by washing the flow cell at 30 μl/min for 900 seconds. Sensorgrams were recorded for each binding assay. A 1:1 Langmuir binding equation was used to simultaneously fit the association and dissociation rates of the ligand-analyte interactions. kₐ, kd, KD were calculated using curve fit analysis software provided with the BiaCore instrument

[4] = biological target: T1, Human BAFF (residues 82-285); assay: competitive displacement ELISA on immobilized BAFF; unbiotinylated BCMA-Fc varied, tracer biotinylated miniBR3
Protocol: The plate washed with PBS and blocked for 1 hr with 200 μl of 0.2% BSA in PBS at room temperature. […] The plate washed with PBS/Tween-20 and incubated with 100 μl/well of 0.1 U/ml Streptavidin-POD (Boehringer Mannheim) for 15 minutes at room temperature. After washing the plate with PBS/0.05% Tween-20 followed by a final wash in PBS, the plate was incubated for 5 min with 100 μl/well PBS substrate solution containing 0.8 mg/ml OPD (Sigma) and 0.01% H₂O₂.

T1 sequence (Q9Y275 82-285): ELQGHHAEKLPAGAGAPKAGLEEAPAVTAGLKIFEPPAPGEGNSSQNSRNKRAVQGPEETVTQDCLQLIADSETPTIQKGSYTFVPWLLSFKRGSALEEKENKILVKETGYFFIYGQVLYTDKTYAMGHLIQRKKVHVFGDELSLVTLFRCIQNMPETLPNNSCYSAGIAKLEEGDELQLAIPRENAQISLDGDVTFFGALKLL

Binder	binding result [1]	IC50 [2]	Kd [3]	koff [3]	kon [3]	IC50 (read off the curve) [4]
MAGQCSQNEYFDSLLHACIPCQLRCSSNTPPLTCQRYCNASVTNSVKGTN (receptor, not shown: small tags and cut ends, also called BCMA(baculovirus); baculovirus BCMA) [BCMA ECD purified from baculovirus expression]	no binding (tested: analyte 6.25 nM to 200 nM)					
AGQCSQNEYFDSLLHACIPCQLRCSSNTPPLTCQRYCNASVTNSVKG (Fc fusion, not shown: a dimerising Fc or GST, also called BCMA(wt)-Fc; BCMA-Fc wt) [BCMA-Fc]		13 nM	4.9 nM	0.0034 s⁻¹	680000 M⁻¹ s⁻¹	~9 nM
